Article PMC11928764
Like-named read-outs stand apart in the source and are kept apart here.

Experiments:
[1] = biological target: T1, C1r proenzyme (zymogen of complement protease C1r) (human)
T1 sequence (P00736 18-705, looked up): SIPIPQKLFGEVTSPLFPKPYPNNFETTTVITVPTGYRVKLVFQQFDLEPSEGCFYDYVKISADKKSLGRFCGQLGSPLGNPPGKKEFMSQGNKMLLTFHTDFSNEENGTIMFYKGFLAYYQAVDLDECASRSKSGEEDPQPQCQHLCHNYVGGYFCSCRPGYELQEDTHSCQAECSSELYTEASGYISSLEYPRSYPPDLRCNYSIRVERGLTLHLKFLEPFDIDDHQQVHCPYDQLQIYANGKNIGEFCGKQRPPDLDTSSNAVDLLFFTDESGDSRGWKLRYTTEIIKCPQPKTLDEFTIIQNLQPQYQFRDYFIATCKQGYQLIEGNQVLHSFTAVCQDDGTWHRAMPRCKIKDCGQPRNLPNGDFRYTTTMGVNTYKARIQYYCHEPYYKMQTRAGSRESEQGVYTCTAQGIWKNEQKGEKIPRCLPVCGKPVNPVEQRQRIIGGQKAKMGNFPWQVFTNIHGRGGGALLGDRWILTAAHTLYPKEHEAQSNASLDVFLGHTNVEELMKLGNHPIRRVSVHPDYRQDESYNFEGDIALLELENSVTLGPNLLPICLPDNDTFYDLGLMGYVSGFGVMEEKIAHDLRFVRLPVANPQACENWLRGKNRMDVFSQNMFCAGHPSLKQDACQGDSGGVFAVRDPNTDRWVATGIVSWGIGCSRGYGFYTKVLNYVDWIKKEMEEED

[2] = biological target: eSALO-WT (SALO, salivary anticomplement from Lutzomyia longipalpis, expressed by HEK293(T) cells) (Lutzomyia longipalpis) (UniProt Q5WPZ4); test: SPR; eSALO-WT amine-coupled to a CMD200M chip (720 RU); analytes injected as two-fold series (15.6-1000 nM; 1.56-100 nM for C1 and C1r proenzyme); 25 °C, HBS-T (20 mM Hepes pH 7.4, 140 mM NaCl, 0.005% Tween-20); 1:1 model, apparent KD
[3] = biological target: eSALO-E58A (Lutzomyia longipalpis); test: SPR; biotinylated eSALO-WT or mutants captured on streptavidin (50-73 RU); single-cycle kinetics, C1r proenzyme 25-400 nM, zC1r-12SP 6.25-100 nM; 25 °C, HBS-T; two-state binding model, apparent KD; mean ± SD of three injections
[4] = biological target: eSALO-WT (SALO, salivary anticomplement from Lutzomyia longipalpis, expressed by HEK293(T) cells) (Lutzomyia longipalpis) (UniProt Q5WPZ4); test: as above
[5] = biological target: eSALO-Y51F (Lutzomyia longipalpis); test: as above
[6] = biological target: eSALO-WT (SALO, salivary anticomplement from Lutzomyia longipalpis, expressed by HEK293(T) cells) (Lutzomyia longipalpis) (UniProt Q5WPZ4); test: SPR; biotinylated eSALO-WT captured on streptavidin (97 RU); single-cycle kinetics, C1r proenzyme 25-400 nM, zC1r-12SP 6.25-100 nM; 25 °C, HBS-T; two-state kinetic model, apparent KD
[7] = biological target: T1, C1r proenzyme (zymogen of complement protease C1r) (human); remark: listed apart in the source

**Q.** How did the IC50 of inhibition of classical-pathway hemolysis (antibody-sensitized sheep erythrocytes, 0.5% NHS) [1] turn out when eSALO-Y51F (natural protein) was run?
**A.** 14500 nM

**Q.** How did the IC50 of inhibition of classical-pathway hemolysis (antibody-sensitized sheep erythrocytes, 0.5% NHS) [1] turn out when eSALO-E58A (natural protein) was run?
**A.** 1200 nM

**Q.** Which Kd [2] does the source give for “Native C1 complex (first component of complement) (from UniProt P02745 23-245; P02746 28-253; P02747 29-245)” here?
**A.** 0.8 nM

**Q.** For “C1r proenzyme (zymogen of complement protease C1r)”, which Kd [2] is on record?
**A.** 8.5 nM

**Q.** What about the Ka-1 (two-state model, first step, association) [3] of the same molecule?
**A.** 50000 M⁻¹ s⁻¹

**Q.** What about the Ka-2 (two-state model, second step, forward) [3] of the same molecule?
**A.** 0.0023 s⁻¹

**Q.** And the Kd [3]?
**A.** 10.3 nM

**Q.** What about the Kd-1 (two-state model, first step, dissociation) [3] of the same molecule?
**A.** 0.0027 s⁻¹

**Q.** What about the Kd-2 (two-state model, second step, reverse) [3] of the same molecule?
**A.** 0.00037 s⁻¹

**Q.** And the Ka-1 (two-state model, first step, association) [4]?
**A.** 30000 M⁻¹ s⁻¹

**Q.** And the Ka-2 (two-state model, second step, forward) [4]?
**A.** 0.003 s⁻¹

**Q.** What about the Kd [4] of the same molecule?
**A.** 5.6 nM

**Q.** What about the Kd-1 (two-state model, first step, dissociation) [4] of the same molecule?
**A.** 0.0022 s⁻¹

**Q.** What about the Kd-2 (two-state model, second step, reverse) [4] of the same molecule?
**A.** 0.00027 s⁻¹

**Q.** What about the Ka-1 (two-state model, first step, association) [5] of the same molecule?
**A.** 370000 M⁻¹ s⁻¹

**Q.** What about the Ka-2 (two-state model, second step, forward) [5] of the same molecule?
**A.** 0.0008 s⁻¹

**Q.** What about the Kd [5] of the same molecule?
**A.** 41.9 nM

**Q.** What about the Kd-1 (two-state model, first step, dissociation) [5] of the same molecule?
**A.** 0.0183 s⁻¹

**Q.** And the Kd-2 (two-state model, second step, reverse) [5]?
**A.** 0.00069 s⁻¹

**Q.** And the Kd [6]?
**A.** 11.1 nM

**Q.** Which Ka-1 (two-state model, first step, association) [3] does the source give for “zC1r-12SP (fragment of human C1r with its two CCP repeats and serine protease domain, S654A, zymogen-like) (domain or fragment)” here?
**A.** 260000 M⁻¹ s⁻¹

**Q.** What about the Ka-2 (two-state model, second step, forward) [3] of the same molecule?
**A.** 0.0018 s⁻¹

**Q.** And the Kd [3]?
**A.** 2.5 nM

**Q.** And the Kd-1 (two-state model, first step, dissociation) [3]?
**A.** 0.0034 s⁻¹

**Q.** What about the Kd-2 (two-state model, second step, reverse) [3] of the same molecule?
**A.** 0.00041 s⁻¹

**Q.** What about the Ka-1 (two-state model, first step, association) [4] of the same molecule?
**A.** 370000 M⁻¹ s⁻¹

**Q.** And the Ka-2 (two-state model, second step, forward) [4]?
**A.** 0.0024 s⁻¹

**Q.** What about the Kd [4] of the same molecule?
**A.** 1.1 nM

**Q.** What about the Kd-1 (two-state model, first step, dissociation) [4] of the same molecule?
**A.** 0.0038 s⁻¹

**Q.** And the Kd-2 (two-state model, second step, reverse) [4]?
**A.** 0.00028 s⁻¹

**Q.** And the Ka-1 (two-state model, first step, association) [5]?
**A.** 280000 M⁻¹ s⁻¹

**Q.** What about the Ka-2 (two-state model, second step, forward) [5] of the same molecule?
**A.** 0.0017 s⁻¹

**Q.** What about the Kd [5] of the same molecule?
**A.** 9 nM

**Q.** And the Kd-1 (two-state model, first step, dissociation) [5]?
**A.** 0.008 s⁻¹

**Q.** What about the Kd-2 (two-state model, second step, reverse) [5] of the same molecule?
**A.** 0.00077 s⁻¹

**Q.** And the Kd [6]?
**A.** 0.7 nM

B1: eSALO-WT (SALO, salivary anticomplement from Lutzomyia longipalpis, expressed by HEK293(T) cells) (natural protein)
chain: SEDCENIFHDNAYLLKLDCEAGRVDPVEYDDISDEEIYEITVDVGVSSEDQEKVAKIIRECIAQVSTQDCTKFSEIYDCYMKKKICNYYPENM
modifications: sulfotyrosine at Y51 (X51; extent of sulfation not known); biotin (NHS-PEG4-biotin) where surface-captured in SPR
**Q.** How did the IC50 of inhibition of classical-pathway hemolysis (antibody-sensitized sheep erythrocytes, 0.5% NHS) [1] turn out when B1 was run?
**A.** 84.9 nM

B2: rSALO-WT (SALO expressed in Escherichia coli and refolded) (natural protein)
chain: B1 chain
**Q.** Which IC50 of inhibition of classical-pathway hemolysis (antibody-sensitized sheep erythrocytes, 0.5% NHS) [7] does the source give for B2 here?
**A.** 16000 nM
